Test results: patent US20210147541A1 (Kyowa Kirin, published 2021)

T1: human CADM3 (human, UniProt Q8N126 25-398)
T1 construct: Full-length gene expressed transiently on Expi293F cells; also called cell adhesion molecule 3; human CADM3/Expi293F cells
T1 sequence: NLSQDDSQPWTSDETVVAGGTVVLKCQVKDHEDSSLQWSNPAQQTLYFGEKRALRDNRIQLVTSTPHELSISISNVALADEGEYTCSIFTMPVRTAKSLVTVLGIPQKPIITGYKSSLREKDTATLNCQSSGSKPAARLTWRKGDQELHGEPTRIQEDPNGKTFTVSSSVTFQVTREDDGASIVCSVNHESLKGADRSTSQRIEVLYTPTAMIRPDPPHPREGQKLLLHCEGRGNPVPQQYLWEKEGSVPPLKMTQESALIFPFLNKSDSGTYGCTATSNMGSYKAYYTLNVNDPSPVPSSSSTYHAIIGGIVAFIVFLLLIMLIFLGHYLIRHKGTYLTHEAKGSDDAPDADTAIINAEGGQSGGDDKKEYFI

T2: mouse CADM3 (mouse, UniProt Q99N28 23-396)
T2 construct: Full-length gene expressed transiently on Expi293F cells; also called mouse CADM3/Expi293F cells; Mouse CADM3-expressing cells
T2 sequence: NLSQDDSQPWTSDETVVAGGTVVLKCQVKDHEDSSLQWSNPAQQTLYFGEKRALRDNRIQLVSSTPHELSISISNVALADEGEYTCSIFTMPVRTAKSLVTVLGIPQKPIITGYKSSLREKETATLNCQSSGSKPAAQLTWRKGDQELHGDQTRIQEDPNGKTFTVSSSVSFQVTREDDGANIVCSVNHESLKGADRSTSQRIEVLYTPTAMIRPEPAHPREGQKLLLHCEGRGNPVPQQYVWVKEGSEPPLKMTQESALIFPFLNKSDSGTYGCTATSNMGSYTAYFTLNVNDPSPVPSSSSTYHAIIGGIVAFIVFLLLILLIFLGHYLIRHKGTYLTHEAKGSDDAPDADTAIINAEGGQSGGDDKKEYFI


Tests used:
mCADM3-GST = molecular target: T3, mCADM3-GST (mouse); experiment: SPR (Biacore T-100), antibody captured, mCADM3-GST as analyte
T3 construct: also called extracellular domain of mouse CADM3 to which GST was added at the C-terminal side; mouse CADM3-GST
Method: (§1) The affinity of the anti-CADM3 antibodies produced in Example 2 for human CADM3 and mouse CADM3 was measured using Biacore T-100 (GE Healthcare). Each of the antibodies was immobilized on a […] sensor chip using a Human antibody Capture kit, and the binding ability was evaluated using hCADM3-GST and mCADM3-GST produced in Example 4 as analytes.
(§2) The obtained sensorgram was analyzed with BIA evaluation software, and the dissociation constant (KD value) was calculated.

hCADM3-GST = molecular target: T4, hCADM3-GST (human); experiment: SPR (Biacore T-100), antibody captured, hCADM3-GST as analyte
T4 construct: also called extracellular domain of human CADM3 to which GST was added at the C-terminal side; human CADM3-GST
Method: as §1, §2

human CADM3 = molecular target: T1, human CADM3; experiment: flow cytometry, 10 ug/mL, human CADM3/Expi293F vs parent Expi293F cells
Method: By using the cells, the reactivity of the antibodies produced in Example 2 with the CADM3-expressing cells was analyzed by a fluorescence activated cell sorting (FACS) method according to the following procedure.
After washing with SB, the cells were suspended in SB, and the fluorescence intensity of each cell was measured using a flow cytometer FACS CANTO II (manufactured by Becton, Dickinson and Company). Note that as a negative control, 10 μg/mL of the anti-AVM antibody was used.
The detection results were analyzed, and a mean fluorescence intensity (MFI) was calculated using a geometric mean. Further, with respect to the MFI when the concentration of each antibody was 10 μg/mL, the ratio of the MFI (mean fluorescence intensity ratio) between the human CADM3/Expi293F cells and the Expi293F cells (parent cell line) was calculated.

mouse CADM3 = molecular target: T2, mouse CADM3; experiment: flow cytometry, 10 ug/mL, mouse CADM3/Expi293F vs parent Expi293F cells

Binder | binding result (mCADM3-GST) | binding result (hCADM3-GST) | Mean fluorescence intensity ratio (human CADM3) | Mean fluorescence intensity ratio (mouse CADM3)
CADM3312 hG4PE(R409K) (antibody, V domains shown, Human IgG4 variant (S228P, L235E, R409K), vector pCI-hKG4PE(R409K)) VH: QLQLQESGPGLVKPSETLSLTCSVSGGSIRGHYWSWIRQPPGKGLEWMGYINHIGSAAYNPSLKSRVTISVDTSKNQFSLKLSSVTAADTAVYYCARMGPWWELDYWGQGTLVTVSS VL: not shown | binds | binds | 34.4 | 31.6
CADM3349 hG4PE(R409K) (antibody, V domains shown, Human IgG4 variant (S228P, L235E, R409K), vector pCI-hKG4PE(R409K)) VH: QVQLQQWGGGLLTPSETLSLSCDVSGGAFTNYHWTWIRQPPGKGLEWIGEIFHTGTTNYNPSLQGRVAMSIDTTKRQFFLRLTSLTAADTAVYYCARVGKYGWYVGDFWGQGTTVTVSS VL: not shown | binds | binds | 4.8 | 48.7
CADM3351 hG4PE(R409K) (antibody, V domains shown, Human IgG4 variant (S228P, L235E, R409K), vector pCI-hKG4PE(R409K)) VH: EVQLLQSGGGLVQPGGSLRLSCAASGLIFSDHYMDWVRQAPGKGLEWVGSIRNKRNGGSTEYAASVKGRFSISRDDSKNSLYLQMNSLKTEDTAMYFCATTRTGYQGFYGMDVWGQGTTVTVSS VL: not shown | binds | binds | 8.2 | 8.8
iCADM3_3R1-L11 VHH-hG4PE(R409K) (Fc fusion, VHH-Fc antibody; also called anti-CADM3 VHH-Fc antibody iCADM3_3R1-L11; not shown: Hinge-CH2-CH3 region of the human IgG4 heavy chain constant region (IgG4 variant)) QVQLVESGGGLVQAGGSLRLSCAASGSIFSFNAMGWYRQAPGKQRGLVAVITSGGYTNYADSVKGRFTITRDNAKNTVYLQMNSLKPEDTAVYYCNAEGVYSDYVIMNYWGQGTQVTVSS | binds | binds | 32.2 | 35.5
CADM3404 hG4PE(R409K) (antibody, V domains shown, Human IgG4 variant (S228P, L235E, R409K), vector pCI-hKG4PE(R409K)) VH: EVQLVETGGGVVQPGRSLRLSCAASGFAFSNYGMHWVRQAPGKGLEWVSVIYSGGNTDYADSVKGRFTISRDNSKNTVYLQMNSLRAEDTAVYYCASRRVVPGVIDYFDSWGQGTLVTVSS VL: not shown | binds | binds | 8.7 | 8.2
CADM3458 hG4PE(R409K) (antibody, V domains shown, Human IgG4 variant (S228P, L235E, R409K), vector pCI-hKG4PE(R409K)) VH: EVQLVESGGGVVQPGRSLRLSCAASGFTFSRYGIHWVRQAPGKGLEWVAVIYSGGNTDYADSVKGRFTISRDNSKNTVYLQMNSLRAEDTAVYYCASRRVVPGVIDYFDSWGQGTLVTVSS VL: not shown | binds | binds | 5.7 | 5.4
CADM3402 hG4PE(R409K) (antibody, V domains shown, Human IgG4 variant (S228P, L235E, R409K), vector pCI-hKG4PE(R409K)) VH: EVQLVESGGGLVQPGGSLRLSCATSGFRFSMYGMHWVRQSPGKGLEWVSVIYSGGNTDYADSVKGRFTISRDNSKNTVYLQMNSLRAEDTAVYYCASRRVVPGVIDYFDSWGQGTLVTVSS VL: not shown | binds | binds | 10.8 | 9.4
CADM3301 hG4PE(R409K) (antibody, V domains shown, Human IgG4 variant (S228P, L235E, R409K), vector pCI-hKG4PE(R409K)) VH: QMQLVQSGAEVKKPGSSVKVSCKASGGTFNNYAISWVRQAPGQGLEWMGGNIPLSGTPKYAQKFQGRITMTADKSTSTEYMELSSLTSEDTAVYYCARDTPSGYNSPYYYKGMDVWGQGTMVTVSS VL: not shown | binds | binds | 6 | 6.2
CADM301 scFv-hG4PE (Fc fusion, also called anti-CADM3 scFv-Fc antibody) VH: QVQLVQSGAEVRRPGTSVKVSCKASGYSFTSYDINWVRLATGQGLEWMGWMNPNTGDTGSPQKFQDRVTMTRDISTGTAYLELRGLKSEDTAIYYCARGFLVTAYTAEFFPHWGQGTLVTVSS VL: SYVLTQPPSVSVAPGKTARLTCGGNNIGSKSVHWYQQRPGQAPVLVINYDSDRPSGIPERFSGSNSENTATLTISRVEAGDEADYYCQVWDSGSDHVVFGGGTQLIIL | binds | binds | 4.22 | 8.08
CADM3314 hG4PE(R409K) (antibody, V domains shown, Human IgG4 variant (S228P, L235E, R409K), vector pCI-hKG4PE(R409K)) VH: QVQLVESGGGVVQPGGSLRLSCAASGFSFNNHGMHWVRQAPGKGLEWVTFIRFDGSSKYYADSVKGRFTISRDNSKNTVYLEMNSLRAEDTGVYYCVNTPRGWSFDIWGRGTLVTVSS VL: not shown | binds | binds | 10 | 9.2
iCADM3_3R1-L5 VHH-hG4PE(R409K) (Fc fusion, VHH-Fc antibody; also called anti-CADM3 VHH-Fc antibody iCADM3_3R1-L5; not shown: Hinge-CH2-CH3 region of the human IgG4 heavy chain constant region (IgG4 variant)) QVQLVESGGGLVQAGGSLRLSCAASGSIVSVNAMGWYRQAPGKQRELVATITSGGSTNYADSAKGRFTISRDNAKNTMYLQMNSLKPEDTAVYYCNGEFWSRRDTRPPGVVNYWGQGTQVTVSS | binds | binds | 25.1 | 4.21

The next lines start with the values.

binding result (mCADM3-GST) | binding result (hCADM3-GST) | Mean fluorescence intensity ratio (human CADM3) | Mean fluorescence intensity ratio (mouse CADM3) | Binder
binds | binds | 52.3 | 42.6 | CADM3102 scFv-hG4PE (Fc fusion, also called anti-CADM3 scFv-Fc antibody) VH: QMQLVQSGAEVKKPGSSVKVSCKASGGTFSSYAISWVRQAPGQGLEWMGGIIPMSGTANYAQKFQGRVTITADESTSTAYMELSSLRSEDTAVYYCARVEESGWYDHYHGMDVWGQGTTVTVSS VL: DVVMTQSPLSLPVTPGEPASISCTSSQSLLYSNGFNYLDWYLQKPGQSPQLLIYLGSNRASGVPDRFSGSGSGTDFTLKISRVEAEDVGVYYCMQALTTHPTFGGGTKVDIK
binds | binds | 7.3 | 9.2 | CADM3219 hG4PE(R409K) (antibody, V domains shown, Human IgG4 variant (S228P, L235E, R409K), vector pCI-hKG4PE(R409K)) VH: QVQLVQSGAEVKKPGASVKVSCKASGYSFTGYYIHWVRQAPGQGLEWMGRINPNSGGTTYAPKFQGRFTMTRDTSTTTVYLELSGLRSEDTAVYYCARVLERQGRPFEADAFDIWGQGTMVTVSS VL: not shown
binds | binds | 6.5 | 7.1 | CADM3316 hG4PE(R409K) (antibody, V domains shown, Human IgG4 variant (S228P, L235E, R409K), vector pCI-hKG4PE(R409K)) VH: EVQLVETGGALVQPGGSLRLSCAASGFTFSSYSMNWVRQAPGKGLEWLSGISGGAFSTHYADSVKGRFTISRDNSKNTLYLQMNSLRAEDTAVYYCARVGRLSGSYNRYYYYYGMDVWGQGTLVTVSS VL: not shown
binds | binds | 37.5 | 8.87 | iCADM3_3R1-L10 VHH-hG4PE(R409K) (Fc fusion, VHH-Fc antibody; also called anti-CADM3 VHH-Fc antibody iCADM3_3R1-L10; not shown: Hinge-CH2-CH3 region of the human IgG4 heavy chain constant region (IgG4 variant)) QVQLVESGGGLVQAGGSLRLSCAASGSIFSIHAMGWYRQAPGKQRELVATVTSGGSTNYADSVKGRFTISRDNAKNTVYLQMNSLKPEDTAVYYCNAETPYYSSTYYTNYWGQGTQVTVSS
binds | binds | 14.7 | 14.6 | CADM3432 hG4PE(R409K) (antibody, V domains shown, Human IgG4 variant (S228P, L235E, R409K), vector pCI-hKG4PE(R409K)) VH: QVQLQQSGPGLVKASQTLSLTCAISGDSVSSRSAAWDWIRQSPSRGLEWLGRTYYRSTWYNDYASSVRSRISINPDTSKNQFSLQLNSVTPEDTAVYYCVRANRKLPAPGQHFYYGMDVWGQGTTVTVSS VL: not shown
binds | binds | 10.2 | 12.5 | CADM3309 hG4PE(R409K) (antibody, V domains shown, Human IgG4 variant (S228P, L235E, R409K), vector pCI-hKG4PE(R409K)) VH: EVQLVQSGAEMKKPGSSVKLSCKFSGGDFRSYPISWVRQAPGQGLEWMGGIIPIFSRVNYAQRFLGRITITADESTSTAYMELRSLTSDDTAVYYCATDTPSGYNSPYYYKGMDVWGQGTLVTVSS VL: not shown
